Experimental data: article PMC5503513, “Tandem hnRNP A1 RNA recognition motifs act in concert to repress the splicing of survival motor neuron exon 7”

What was measured:
hnRNP A1 RRM1 [1] = target: T1, hnRNP A1 RRM1 (UniProt P09651 2-97); assay: ITC; ITC: 10 mM NaPi pH 6.5, 10 mM 2-mercaptoethanol, 30 C, protein titrated into RNA; NMR: 10 mM NaPi pH 6.5, 1 mM DTT (303 K stated for UP1-R140A:ISS-N1-u25g); conditions: protein: recombinant; single strand
hnRNP A1 RRM1 F23A = hnRNP A1 RRM1 F23A (UniProt P09651 2-97, F23A); assay: as above; conditions: protein: recombinant; single strand
Chain of hnRNP A1 RRM1 F23A (P09651 2-97 F23A): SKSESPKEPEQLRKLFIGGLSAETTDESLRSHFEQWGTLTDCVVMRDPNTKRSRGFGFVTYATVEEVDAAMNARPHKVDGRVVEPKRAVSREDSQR

UP1 R140A [2] = target: T2, UP1 R140A (UniProt P09651 1-196, R140A); assay: NMR titration; 1 equivalent RNA; ITC: 10 mM NaPi pH 6.5, 10 mM 2-mercaptoethanol, 30 C, protein titrated into RNA; NMR: 10 mM NaPi pH 6.5, 1 mM DTT (303 K stated for UP1-R140A:ISS-N1-u25g); conditions: protein: recombinant; single strand
T2 sequence (P09651 1-196 R140A): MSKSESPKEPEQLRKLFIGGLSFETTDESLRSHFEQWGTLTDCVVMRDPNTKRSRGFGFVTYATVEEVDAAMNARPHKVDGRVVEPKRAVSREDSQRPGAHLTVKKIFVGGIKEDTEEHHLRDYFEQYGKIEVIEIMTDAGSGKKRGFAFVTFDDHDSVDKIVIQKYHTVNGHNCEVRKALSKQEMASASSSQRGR

UP1 [3] = target: T3, UP1 (UniProt P09651 1-196); assay: NMR titration; intermediate exchange, both RRMs; ITC: 10 mM NaPi pH 6.5, 10 mM 2-mercaptoethanol, 30 C, protein titrated into RNA; NMR: 10 mM NaPi pH 6.5, 1 mM DTT (303 K stated for UP1-R140A:ISS-N1-u25g); conditions: protein: recombinant; single strand
T3 sequence (P09651 1-196): as the sequence (P09651 1-196 R140A) above, with A140R counted along it

hnRNP A1 RRM1 [4] = target: T1, hnRNP A1 RRM1; assay: NMR titration; intermediate exchange; ITC: 10 mM NaPi pH 6.5, 10 mM 2-mercaptoethanol, 30 C, protein titrated into RNA; NMR: 10 mM NaPi pH 6.5, 1 mM DTT (303 K stated for UP1-R140A:ISS-N1-u25g); conditions: protein: recombinant; single strand
hnRNP A1 RRM2 [5] = target: T4, hnRNP A1 RRM2 (UniProt P09651 95-196); assay: NMR titration; fast exchange; ITC: 10 mM NaPi pH 6.5, 10 mM 2-mercaptoethanol, 30 C, protein titrated into RNA; NMR: 10 mM NaPi pH 6.5, 1 mM DTT (303 K stated for UP1-R140A:ISS-N1-u25g); conditions: protein: recombinant; single strand
T4 sequence (P09651 95-196): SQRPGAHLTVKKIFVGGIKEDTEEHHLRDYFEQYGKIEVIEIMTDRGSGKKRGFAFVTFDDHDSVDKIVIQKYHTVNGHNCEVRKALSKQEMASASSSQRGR

hnRNP A1 RRM1 [6] = target: T1, hnRNP A1 RRM1; assay: ITC; 10 mM sodium phosphate pH 6.5, 10 mM 2-mercaptoethanol, no added salt, 30 C; RNA 5-10 uM in the cell; 1:1 fit; conditions: one extra N-terminal Ala in PDB 5MPG (left out)
hnRNP A1 UP1 R1r2 [7] = target: hnRNP A1 UP1 R1r2 (Homo sapiens, UniProt P09651 2-196, F108A;F150A); assay: as above; conditions: extra N-terminal Gly-Gly in PDB 2LYV (left out)
Chain of hnRNP A1 UP1 R1r2 (P09651 2-196 F108A/F150A): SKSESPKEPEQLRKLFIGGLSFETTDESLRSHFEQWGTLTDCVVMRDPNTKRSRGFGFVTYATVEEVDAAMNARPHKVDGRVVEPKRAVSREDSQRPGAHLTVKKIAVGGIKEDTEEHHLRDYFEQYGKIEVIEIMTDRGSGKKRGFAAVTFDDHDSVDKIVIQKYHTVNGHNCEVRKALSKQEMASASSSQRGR

hnRNP A1 RRM2 R140A [8] = target: T5, hnRNP A1 RRM2 R140A (UniProt P09651 95-196, R140A); assay: as above; conditions: none in PDB 5MPL
T5 sequence (P09651 95-196 R140A): as the sequence (P09651 95-196) above, with R46A counted along it

hnRNP A1 UP1 r1R2 [9] = target: hnRNP A1 UP1 r1R2 (Homo sapiens, UniProt P09651 2-196, F17A;F59A); assay: as above; conditions: extra N-terminal Gly-Gly in PDB 2LYV (left out)
Chain of hnRNP A1 UP1 r1R2 (P09651 2-196 F17A/F59A): as the sequence (P09651 2-196 F108A/F150A) above, with F16A, F58A, A107F, A149F counted along it

hnRNP A1 RRM1 [10] = target: T1, hnRNP A1 RRM1; assay: ITC; range, no saturation; ITC: 10 mM NaPi pH 6.5, 10 mM 2-mercaptoethanol, 30 C, protein titrated into RNA; NMR: 10 mM NaPi pH 6.5, 1 mM DTT (303 K stated for UP1-R140A:ISS-N1-u25g); conditions: protein: recombinant; single strand
hnRNP A1 RRM2 R140A [11] = target: T5, hnRNP A1 RRM2 R140A; assay: as above; conditions: protein: recombinant; single strand
hnRNP A1 RRM2 [12] = target: T4, hnRNP A1 RRM2; assay: ITC; ITC: 10 mM NaPi pH 6.5, 10 mM 2-mercaptoethanol, 30 C, protein titrated into RNA; NMR: 10 mM NaPi pH 6.5, 1 mM DTT (303 K stated for UP1-R140A:ISS-N1-u25g); conditions: protein: recombinant; single strand
hnRNP A1 RRM2 E176Q = hnRNP A1 RRM2 E176Q (UniProt P09651 95-196, E176Q); assay: as above; conditions: protein: recombinant; single strand
Chain of hnRNP A1 RRM2 E176Q (P09651 95-196 E176Q): as the sequence (P09651 95-196) above, with E82Q counted along it

UP1 r1R2 = UP1 r1R2 (UniProt P09651 1-196, F17A;F59A); assay: as above; conditions: protein: recombinant; single strand
Chain of UP1 r1R2 (P09651 1-196 F17A/F59A): as the sequence (P09651 1-196 R140A) above, with F17A, F59A, A140R counted along it

hnRNP A1 RRM2 R140A [13] = target: T5, hnRNP A1 RRM2 R140A; assay: as above; conditions: protein: recombinant; single strand
hnRNP A1 RRM1 [14] = target: T1, hnRNP A1 RRM1; assay: NMR titration; fast exchange; ITC: 10 mM NaPi pH 6.5, 10 mM 2-mercaptoethanol, 30 C, protein titrated into RNA; NMR: 10 mM NaPi pH 6.5, 1 mM DTT (303 K stated for UP1-R140A:ISS-N1-u25g); conditions: protein: recombinant; single strand
UP1 R140A [15] = target: T2, UP1 R140A; assay: NMR (intermolecular NOEs, structural model); 1:1 complex; RRM2 on 5' motif, RRM1 on 3' motif; ITC: 10 mM NaPi pH 6.5, 10 mM 2-mercaptoethanol, 30 C, protein titrated into RNA; NMR: 10 mM NaPi pH 6.5, 1 mM DTT (303 K stated for UP1-R140A:ISS-N1-u25g); conditions: protein: recombinant; single strand
hnRNP A1 RRM2 M186A = hnRNP A1 RRM2 M186A (UniProt P09651 95-196, M186A); assay: ITC; 10 mM sodium phosphate pH 6.5, 10 mM 2-mercaptoethanol, no added salt, 30 C; RNA 5-10 uM in the cell; 1:1 fit; conditions: none in PDB 5MPL
Chain of hnRNP A1 RRM2 M186A (P09651 95-196 M186A): as the sequence (P09651 95-196) above, with M92A counted along it

hnRNP A1 RRM2 Y167F = hnRNP A1 RRM2 Y167F (UniProt P09651 95-196, Y167F); assay: ITC; ITC: 10 mM NaPi pH 6.5, 10 mM 2-mercaptoethanol, 30 C, protein titrated into RNA; NMR: 10 mM NaPi pH 6.5, 1 mM DTT (303 K stated for UP1-R140A:ISS-N1-u25g); conditions: protein: recombinant; single strand
Chain of hnRNP A1 RRM2 Y167F (P09651 95-196 Y167F): as the sequence (P09651 95-196) above, with Y73F counted along it

UP1 [16] = target: T3, UP1; assay: NMR PRE; 1:1 complex; ITC: 10 mM NaPi pH 6.5, 10 mM 2-mercaptoethanol, 30 C, protein titrated into RNA; NMR: 10 mM NaPi pH 6.5, 1 mM DTT (303 K stated for UP1-R140A:ISS-N1-u25g); conditions: protein: recombinant; label: IA-proxyl spin label on s4U18; single strand
UP1 R140A [17] = target: T2, UP1 R140A; assay: as above; conditions: protein: recombinant; label: IA-proxyl spin label on s4U18; single strand
UP1 [18] = target: T3, UP1; assay: NMR titration; broad lines; ITC: 10 mM NaPi pH 6.5, 10 mM 2-mercaptoethanol, 30 C, protein titrated into RNA; NMR: 10 mM NaPi pH 6.5, 1 mM DTT (303 K stated for UP1-R140A:ISS-N1-u25g); conditions: protein: recombinant; single strand

T1 sequence (P09651 2-97): as the sequence (P09651 2-97 F23A) above, with A22F counted along it

In the case of UUUUAGGUC (ssRNA), the Kd (hnRNP A1 RRM1 [1]) is reported as 159 ± 9 nM and the Kd (hnRNP A1 RRM1 F23A) is reported as 130 ± 8 nM.

GGACCAGCAUUAUGAAAGUGA (ssRNA) [ISS-N1 WT]: binds (UP1 R140A [2]); binds (UP1 [3]).

CGUAGGU (ssRNA): binds (hnRNP A1 RRM1 [4]).

UCAGGG (ssRNA): binds (hnRNP A1 RRM2 [5]).

Binder UGAGUU (ssRNA) has a Kd (hnRNP A1 RRM1 [6]) of roughly 3450 nM, a Kd (hnRNP A1 UP1 R1r2 [7]) of 654 ± 50 nM and a Kd (hnRNP A1 RRM2 R140A [8]) of roughly 2650 nM. For the same binder, the Kd (hnRNP A1 UP1 r1R2 [9]) was 625 ± 41 nM, the Kd (hnRNP A1 RRM1 [10]) was roughly 5200 nM and the Kd (hnRNP A1 RRM2 R140A [11]) was roughly 2240 nM. The Kd (hnRNP A1 RRM2 [12]) was 546 ± 31 nM, the Kd (hnRNP A1 RRM2 E176Q) was 324 ± 20 nM and the Kd (UP1 r1R2) was 625 ± 41 nM.

Binder UAGGUC (ssRNA) has a Kd (hnRNP A1 RRM2 R140A [8]) of 685 ± 40 nM, a Kd (hnRNP A1 RRM1 [1]) of 625 ± 35 nM and a Kd (hnRNP A1 RRM2 [12]) of 98 ± 8 nM. The Kd (hnRNP A1 RRM1 F23A) was 602 ± 34 nM, the Kd (hnRNP A1 RRM2 E176Q) was 227 ± 14 nM and the Kd (hnRNP A1 RRM2 R140A [13]) was 685 ± 40 nM.

CAGCAU (ssRNA): binds (hnRNP A1 RRM1 [14]); binds (hnRNP A1 RRM2 [5]).

Work on UAAGUU (ssRNA) yielded a Kd (hnRNP A1 RRM1 [6]) of roughly 4610 nM, a Kd (hnRNP A1 UP1 R1r2 [7]) of 658 ± 44 nM and a Kd (hnRNP A1 RRM2 R140A [8]) of roughly 3300 nM. It also gave a Kd (hnRNP A1 UP1 r1R2 [9]) of 685 ± 42 nM, a Kd (hnRNP A1 RRM1 [10]) of roughly 5200 nM and a Kd (hnRNP A1 RRM2 R140A [11]) of roughly 2240 nM. The Kd (hnRNP A1 RRM2 [12]) was 543 ± 31 nM, the Kd (hnRNP A1 RRM2 E176Q) was 429 ± 27 nM and the Kd (UP1 r1R2) was 685 ± 42 nM.

UCAGGUC (ssRNA) was tested, and the Kd (hnRNP A1 UP1 R1r2 [7]) was 171 ± 12 nM, the Kd (hnRNP A1 RRM2 R140A [8]) was 862 ± 47 nM and the Kd (hnRNP A1 UP1 r1R2 [9]) was 178 ± 11 nM. For the same binder, the Kd (hnRNP A1 RRM1 [1]) was 543 ± 33 nM, the Kd (hnRNP A1 RRM2 [12]) was 129 ± 11 nM and the Kd (hnRNP A1 RRM2 E176Q) was 132 ± 29 nM. The Kd (hnRNP A1 RRM2 R140A [13]) was 862 ± 47 nM and the Kd (UP1 r1R2) was 178 ± 11 nM.

UUUUAGGU (ssRNA): binds (hnRNP A1 RRM1 [4]).

GGACCAGCAUUAUGAAAGGGA (ssRNA) [ISS-N1-u25g]: binds (UP1 R140A [15]).

With UCAGUU (ssRNA) the Kd (hnRNP A1 RRM2 M186A) was 1630 nM, the Kd (hnRNP A1 RRM1 [6]) was greater than 10000 nM and the Kd (hnRNP A1 UP1 R1r2 [7]) was 578 ± 40 nM. The Kd (hnRNP A1 RRM2 R140A [8]) was roughly 2490 nM, the Kd (hnRNP A1 UP1 r1R2 [9]) was 637 ± 39 nM and the Kd (hnRNP A1 RRM2 R140A [11]) was roughly 2240 nM. It also gave a Kd (hnRNP A1 RRM2 [12]) of 541 ± 33 nM, a Kd (hnRNP A1 RRM2 E176Q) of 237 ± 15 nM and a Kd (hnRNP A1 RRM2 Y167F) of 513 ± 30 nM. It also gave a Kd (UP1 r1R2) of 637 ± 39 nM.

GGACCAGGAUUAUGAAAGUGC (ssRNA) [ISS-N1-c14g]: binds (UP1 R140A [2]).

UGAAAGU (ssRNA): binds (hnRNP A1 RRM1 [14]); binds (hnRNP A1 RRM2 [5]).

ACCAGCAUUAUGAAAGGUA (XNA, 4-thio-U at position 18) [modified ISS-N1 (spin-labeled)]: binds (UP1 [16]); binds (UP1 R140A [17]).

UUAGGGA (ssRNA): binds (hnRNP A1 RRM1 [14]); binds (hnRNP A1 RRM2 [5]).

GGACCAGGAUUAUGAAAGGGC (ssRNA) [ISS-N1-14g25g]: binds (UP1 R140A [2]); binds (UP1 [18]).
